Measurements reported in publication PMC3828517 (Genes & Development, 2013).
One block for each molecule: values may come before it.

What was measured:
[1] = molecular target: Lrp6 β-propeller domains 1–2 (BP1–2), His8-tagged (human); test: AlphaScreen or HTRF
[2] = molecular target: T1, MBP-Norrin (human Norrin residues 25–133 fused to the C terminus of maltose-binding protein) (human), Q00604; test: SEC; settings: remark: other sources report otherwise
T1 chain: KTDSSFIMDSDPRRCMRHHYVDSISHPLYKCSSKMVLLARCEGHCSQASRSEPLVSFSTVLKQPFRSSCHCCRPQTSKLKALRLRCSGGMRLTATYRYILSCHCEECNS

[3] = molecular target: T2, Lrp6BP2-FcH6 (Lrp6 β-propeller 2 as an Fc fusion protein) (human, UniProt O75581 325-631); test: AlphaScreen or HTRF
T2 sequence: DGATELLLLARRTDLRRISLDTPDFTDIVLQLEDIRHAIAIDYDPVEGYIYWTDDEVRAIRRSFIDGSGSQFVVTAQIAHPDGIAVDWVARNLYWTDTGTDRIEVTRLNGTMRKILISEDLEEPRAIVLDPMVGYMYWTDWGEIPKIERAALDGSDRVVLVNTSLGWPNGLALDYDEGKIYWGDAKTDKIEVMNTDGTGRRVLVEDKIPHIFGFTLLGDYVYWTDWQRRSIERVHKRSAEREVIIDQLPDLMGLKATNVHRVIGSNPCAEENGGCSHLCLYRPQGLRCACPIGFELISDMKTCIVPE

[4] = molecular target: T3, Fz4-FcH6 (Frizzled 4 cysteine-rich domain fused with an FcH6 tag) (human, UniProt Q9ULV1 40-164); test: AlphaScreen or HTRF
T3 sequence: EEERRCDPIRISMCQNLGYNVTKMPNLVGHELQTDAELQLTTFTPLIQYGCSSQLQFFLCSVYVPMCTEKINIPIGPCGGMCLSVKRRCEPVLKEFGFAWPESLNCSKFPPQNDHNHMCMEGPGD

[5] = molecular target: T2, Lrp6BP2-FcH6 (Lrp6 β-propeller 2 as an …); test: BLI
[6] = molecular target: T3, Fz4-FcH6 (Frizzled 4 cysteine-rich …); test: BLI
crystal structure = molecular target: the molecule itself; test: crystal structure

Molecule: MBP-Norrin C55A/C110A mutant protein (from UniProt Q00604 25-133) (ligand)
IC50 [1]: 207 nM

B1: MBP-Norrin (human Norrin residues 25–133 fused to the C terminus of maltose-binding protein), Q00604 25-133 (ligand)
chain: KTDSSFIMDSDPRRCMRHHYVDSISHPLYKCSSKMVLLARCEGHCSQASRSEPLVSFSTVLKQPFRSSCHCCRPQTSKLKALRLRCSGGMRLTATYRYILSCHCEECNS
stoichiometry N [2]: 2

B3: MBP-Norrin (human Norrin residues 25–133 fused to the C terminus of maltose-binding protein) (ligand)
chain: KTDSSFIMDSDPRRCMRHHYVDSISHPLYKCSSKMVLLARCEGHCSQASRSEPLVSFSTVLKQPFRSSCHCCRPQTSKLKALRLRCSGGMRLTATYRYILSCHCEECNS
IC50 [4]: 34 nM
binding result [5]: binds
Kd [6]: 5 nM

B5: MBP-Norrin C55A/C110A mutant protein (ligand)
chain: KTDSSFIMDSDPRRCMRHHYVDSISHPLYKASSKMVLLARCEGHCSQASRSEPLVSFSTVLKQPFRSSCHCCRPQTSKLKALRLRASGGMRLTATYRYILSCHCEECNS
IC50 [4]: 37 nM

B6: MBP-Norrin truncation construct (Norrin residues 31–133 fused with MBP at its N terminus), as crystallized (ligand)
chain: IMDSDPRRCMRHHYVDSISHPLYKCSSKMVLLARCEGHCSQASRSEPLVSFSTVLKQPFRSSCHCCRPQTSKLKALRLRCSGGMRLTATYRYILSCHCEECNS
binding result (crystal structure): binds

The next lines start with the values.

IC50 [1]: 288 nM
Molecule: MBP-Norrin R41E mutant protein (from UniProt Q00604 25-133) (ligand)

binding result [3]: binds
Kd [4]: 11 nM
B2: biotinylated MBP-Norrin (AviTag-MBP-Norrin, biotinylated in vivo) (ligand)
chain: KTDSSFIMDSDPRRCMRHHYVDSISHPLYKCSSKMVLLARCEGHCSQASRSEPLVSFSTVLKQPFRSSCHCCRPQTSKLKALRLRCSGGMRLTATYRYILSCHCEECNS
modifications: biotin on the AviTag (in vivo biotinylation by BirA)

IC50 [4]: 18 nM
B4: MBP-Norrin K54E/R109E mutant protein (ligand)
chain: KTDSSFIMDSDPRRCMRHHYVDSISHPLYECSSKMVLLARCEGHCSQASRSEPLVSFSTVLKQPFRSSCHCCRPQTSKLKALRLECSGGMRLTATYRYILSCHCEECNS
